The results in this text go back to the Human Domainome abundance scans (Beltran et al. 2025).

To fix the notation:
B1: POU domain, class 3, transcription factor 4, residues 280 to 335; numbered along this chain, P49335 (parent)
chain: KKRTSIEVSVKGVLETHFLKCPKPAAQEISSLADSLQLEKEVVRVWFCNRRQKEKR

± gives the uncertainty stated by the source.

Variants of B1 are the subject of the data set. Kind of data set: abundance fitness (aPCA) (normalised: wild type 0, dead -1); higher = more abundant; growth selection in yeast, the domain comes from the species named. Particulars: Homo sapiens.
Turning to E39G, the abundance fitness is -0.686 ± 0.16.

As to E39C, the abundance fitness is -0.411 ± 0.19.

Take E39Q: the abundance fitness is -0.522 ± 0.41.

E39I: the abundance fitness was -0.456 ± 0.25.

For E39R, the abundance fitness is -0.572 ± 0.12.

Regarding V13H, the abundance fitness was -0.407 ± 0.47.

As for V13G, the abundance fitness is -0.662 ± 0.18.

For the variant V13F, the abundance fitness was -0.315 ± 0.4.

With V13R, the abundance fitness is -0.215 ± 0.14.

For the variant V13S, the abundance fitness was -0.038 ± 0.25.

As for V13E, the abundance fitness was -0.182 ± 0.26.

With V13Y, the abundance fitness was -0.354 ± 0.48.

For the variant V13D, the abundance fitness is -0.518 ± 0.43.

On to Q37P, for which the abundance fitness is -0.855 ± 0.33.

Q37F: the abundance fitness was -0.615 ± 0.38.

For Q37D, the abundance fitness came to 0.043 ± 0.33.

As to Q37A, the abundance fitness was -0.437 ± 0.33.

In the case of Q37M, the abundance fitness was -0.22 ± 0.32.

Q37K: the abundance fitness was -0.322 ± 0.48.

G12Q: the abundance fitness came to 0.103 ± 0.29.

In the case of L19W, the abundance fitness was -0.624 ± 0.2.

Consider L19D, for which the abundance fitness was -0.363 ± 0.28.

With L19R, the abundance fitness was -0.236 ± 0.1.

Turning to L19I, the abundance fitness is -0.441 ± 0.32.

For the variant L19Q, the abundance fitness is -0.045 ± 0.22.

For L19M, the abundance fitness is 0.039 ± 0.2.

For the variant W46V, the abundance fitness is -0.82 ± 0.17.

Take W46R: the abundance fitness was -0.927 ± 0.16.

In the case of W46M, the abundance fitness was -0.932 ± 0.26.

Take W46T: the abundance fitness was -0.709 ± 0.19.

Consider W46Q, for which the abundance fitness was -0.403 ± 0.27.

With W46I, the abundance fitness was -0.688 ± 0.25.

Consider W46P, for which the abundance fitness was -0.953 ± 0.29.

Turning to W46G, the abundance fitness is -0.639 ± 0.15.

For the variant S5C, the abundance fitness worked out at 0.2 ± 0.16.

Take S5H: the abundance fitness is -0.187 ± 0.37.

S5P: the abundance fitness is -0.158 ± 0.19.

In the case of T4I, the abundance fitness came out at 0.067 ± 0.3.

T4Y: the abundance fitness was -0.248 ± 0.22.

For T4W, the abundance fitness was -0.486 ± 0.17.

T4C: the abundance fitness is -0.249 ± 0.18.

Consider T4H, for which the abundance fitness is -0.925 ± 0.36.

In the case of A25H, the abundance fitness was -0.096 ± 0.27.

Take A25D: the abundance fitness was determined as 0.545 ± 0.18.

Turning to A25P, the abundance fitness was -0.31 ± 0.2.

For A25S, the abundance fitness turned out to be 0.457 ± 0.1.

In the case of A25C, the abundance fitness came to 0.18 ± 0.11.

Take L14K: the abundance fitness was -0.655 ± 0.22.

Consider L14D, for which the abundance fitness is -0.825 ± 0.24.

With L14I, the abundance fitness is -0.607 ± 0.17.

For the variant L14N, the abundance fitness is -0.564 ± 0.23.

Regarding L14Y, the abundance fitness is -1.08 ± 0.27.

With L14V, the abundance fitness was -0.788 ± 0.14.

As to T16P, the abundance fitness is -0.839 ± 0.26.

Turning to T16I, the abundance fitness was -0.428 ± 0.27.

On to T16S, for which the abundance fitness is 0.217 ± 0.13.

For the variant T16R, the abundance fitness was 0.059 ± 0.13.

As to T16W, the abundance fitness was -0.347 ± 0.18.

Regarding T16A, the abundance fitness was determined as 0.197 ± 0.14.

In the case of Q52L, the abundance fitness was -0.055 ± 0.13.

Regarding Q52P, the abundance fitness was -0.741 ± 0.22.

Take Q52M: the abundance fitness came to 0.071 ± 0.2.

Turning to Q52D, the abundance fitness amounted to 0.231 ± 0.2.

Consider Q52R, for which the abundance fitness was -0.317 ± 0.13.

As to Q52C, the abundance fitness is -0.291 ± 0.21.

As to Q52H, the abundance fitness was -0.069 ± 0.23.

As to Q52E, the abundance fitness worked out at 0.084 ± 0.17.

Turning to Q52Y, the abundance fitness is -0.095 ± 0.34.

With Q52T, the abundance fitness is -0.351 ± 0.22.

For D34W, the abundance fitness was -0.801 ± 0.16.

With D34Y, the abundance fitness was -0.793 ± 0.31.

As for D34G, the abundance fitness was -0.537 ± 0.15.

Consider D34L, for which the abundance fitness was -0.528 ± 0.13.

For D34H, the abundance fitness came to 0.069 ± 0.2.

Consider D34T, for which the abundance fitness was -0.472 ± 0.19.

S9H: the abundance fitness was 0.277 ± 0.45.

As for S9G, the abundance fitness worked out at 0.172 ± 0.2.

Consider S9D, for which the abundance fitness stood at 0.539 ± 0.28.

Turning to S9E, the abundance fitness was determined as 0.443 ± 0.27.

In the case of K20R, the abundance fitness was -0.386 ± 0.12.

For the variant K20W, the abundance fitness is -0.832 ± 0.18.

In the case of K20N, the abundance fitness is -0.475 ± 0.18.

K20M: the abundance fitness was -0.812 ± 0.26.

In the case of K20V, the abundance fitness was -0.429 ± 0.12.

Consider K20S, for which the abundance fitness is -0.479 ± 0.15.

Turning to S30P, the abundance fitness is -0.652 ± 0.24.

For S30R, the abundance fitness is -0.185 ± 0.14.

S30I: the abundance fitness is -0.148 ± 0.3.

On to S30M, for which the abundance fitness was -0.262 ± 0.19.

For the variant S30D, the abundance fitness was found to be 0.08 ± 0.14.

For the variant H17P, the abundance fitness was -0.957 ± 0.32.

On to H17I, for which the abundance fitness was -0.542 ± 0.31.

On to H17Y, for which the abundance fitness turned out to be 0.386 ± 0.18.

In the case of H17G, the abundance fitness was -0.662 ± 0.16.

Regarding Q27C, the abundance fitness was -0.16 ± 0.18.

With Q27G, the abundance fitness was -0.172 ± 0.1.

For the variant Q27V, the abundance fitness is -0.434 ± 0.12.

For the variant Q27M, the abundance fitness is -0.344 ± 0.21.

As for Q27D, the abundance fitness worked out at 0.147 ± 0.19.

Take L36E: the abundance fitness is -0.781 ± 0.39.

On to N49Q, for which the abundance fitness is 0 ± 0.16.

Consider N49S, for which the abundance fitness was -0.308 ± 0.14.

As to N49C, the abundance fitness is -0.686 ± 0.28.

As to N49H, the abundance fitness was -0.46 ± 0.2.

On to N49F, for which the abundance fitness was -0.574 ± 0.18.

On to N49A, for which the abundance fitness was -0.373 ± 0.17.

For the variant L32I, the abundance fitness was -0.041 ± 0.48.

L32Q: the abundance fitness is -0.916 ± 0.35.

Turning to L32N, the abundance fitness was -0.785 ± 0.32.

As for L32E, the abundance fitness was -0.631 ± 0.36.

Turning to L32M, the abundance fitness is -0.425 ± 0.27.

On to L32W, for which the abundance fitness was -0.614 ± 0.28.

With L32A, the abundance fitness is -0.247 ± 0.21.

In the case of V45T, the abundance fitness was 0.307 ± 0.15.

For the variant V45M, the abundance fitness is -0.041 ± 0.26.

Take V45Q: the abundance fitness came to 0.156 ± 0.14.

As for V45A, the abundance fitness amounted to 0.085 ± 0.12.

As to V45C, the abundance fitness was -0.243 ± 0.36.

Consider V45H, for which the abundance fitness was -0.077 ± 0.26.

V45L: the abundance fitness amounted to 0.052 ± 0.12.

Take V45G: the abundance fitness is -0.25 ± 0.14.

As to E41G, the abundance fitness is -0.709 ± 0.14.

With E41V, the abundance fitness is -0.817 ± 0.2.

Turning to E41L, the abundance fitness is -0.955 ± 0.15.

As for E41D, the abundance fitness came out at 0.043 ± 0.2.

Turning to V43F, the abundance fitness was -0.567 ± 0.28.

For the variant V43Q, the abundance fitness is -0.601 ± 0.3.

As for V43A, the abundance fitness is -0.692 ± 0.19.

For the variant V43P, the abundance fitness is -0.774 ± 0.23.

On to V43T, for which the abundance fitness is -0.975 ± 0.2.

As to V43E, the abundance fitness is -0.815 ± 0.33.

For the variant V43C, the abundance fitness was -0.832 ± 0.27.

As to V43I, the abundance fitness was -0.543 ± 0.2.

Consider V43S, for which the abundance fitness is -0.852 ± 0.17.

As for S35H, the abundance fitness turned out to be 0.345 ± 0.21.

Turning to S35E, the abundance fitness was 0.115 ± 0.17.

S35A: the abundance fitness turned out to be 0.071 ± 0.14.

As to S35K, the abundance fitness is 0.257 ± 0.15.

In the case of S35T, the abundance fitness is -0.01 ± 0.13.

As to S35L, the abundance fitness was -0.122 ± 0.11.

Turning to S35R, the abundance fitness amounted to 0.152 ± 0.11.

In the case of K53Y, the abundance fitness was -0.616 ± 0.31.

In the case of K53M, the abundance fitness was -0.049 ± 0.29.

For K53T, the abundance fitness is -0.428 ± 0.2.

As for K53Q, the abundance fitness is -0.258 ± 0.24.

With K53S, the abundance fitness was -0.318 ± 0.15.

For the variant K53A, the abundance fitness was -0.066 ± 0.13.

K53G: the abundance fitness was -0.826 ± 0.2.

Take K53N: the abundance fitness was -0.544 ± 0.41.

For the variant K53C, the abundance fitness was -0.428 ± 0.35.

On to K53P, for which the abundance fitness was -0.884 ± 0.25.

Take E28T: the abundance fitness was -0.411 ± 0.17.

As for E28P, the abundance fitness is -0.352 ± 0.22.

Turning to E28L, the abundance fitness was -0.357 ± 0.13.

Consider E28K, for which the abundance fitness is -0.713 ± 0.29.

With E28G, the abundance fitness is -0.886 ± 0.16.

Take E28C: the abundance fitness is -0.569 ± 0.19.

With F18S, the abundance fitness was -0.719 ± 0.14.

Turning to F18V, the abundance fitness was -0.56 ± 0.11.

For the variant F18G, the abundance fitness is -0.741 ± 0.11.

In the case of F18E, the abundance fitness was -0.851 ± 0.17.

Consider F18L, for which the abundance fitness is -1.03 ± 0.16.

In the case of F18A, the abundance fitness is -0.891 ± 0.14.

Consider K2S, for which the abundance fitness was -0.161 ± 0.14.

K2M: the abundance fitness is -0.201 ± 0.24.

Consider K2R, for which the abundance fitness was -0.225 ± 0.17.

For K2T, the abundance fitness is -0.277 ± 0.2.
